Results reported in publication PMC12096823, “SloR-SRE binding to the S. mutans mntH promoter is cooperative”.
Residue numbers refer to the chain shown, from its start.

How the values were obtained:
[1] = molecular target: T1, SloR (Streptococcus mutans UA159?) (UniProt I6L923); assay: EMSA; details: BLI: PBS pH 7.2, 0.1% Tween-20, 100 uM MnCl2, 30 C; EMSA: 60-200 nM SloR, 16 uL, 12% native gel, buffer as cited; footprinting: 8.4 mM NaH2PO4, 11.6 mM …
T1 sequence: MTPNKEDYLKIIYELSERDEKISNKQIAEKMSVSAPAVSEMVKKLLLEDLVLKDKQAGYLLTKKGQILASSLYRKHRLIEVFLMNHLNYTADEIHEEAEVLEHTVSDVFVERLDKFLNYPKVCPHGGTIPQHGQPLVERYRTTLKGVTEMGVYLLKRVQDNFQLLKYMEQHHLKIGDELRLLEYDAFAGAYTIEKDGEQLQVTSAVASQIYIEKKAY

[2] = molecular target: T1, SloR (Streptococcus mutans UA159?); assay: footprinting; details: BLI: PBS pH 7.2, 0.1% Tween-20, 100 uM MnCl2, 30 C; EMSA: 60-200 nM SloR, 16 uL, 12% native gel, buffer as cited; footprinting: 8.4 mM NaH2PO4, 11.6 mM …
SloR (BLI preparation) [3] = molecular target: T2, SloR (BLI preparation) (UniProt I6L923 1-217); assay: BLI; 100 uM MnCl2; DNA up to 20 uM; BLI: PBS pH 7.2, 0.1% Tween-20, 100 uM MnCl2, 30 C; EMSA: 60-200 nM SloR, 16 uL, 12% native gel, buffer as cited; footprinting: 8.4 mM NaH2PO4, 11.6 mM Na2HPO4, 50 mM NaCl, 5 mM MgCl2, 10 ug/mL BSA, 200 ug/mL salmon sperm DNA, 7.5 uM MnCl2, 30 C; details: protein: recombinant; tags: immobilized on NTA biosensor; chain copies: 2; blunt
T2 sequence: T1 sequence

SloR [4] = molecular target: T3, SloR (UniProt I6L923 1-217); assay: EMSA; BLI: PBS pH 7.2, 0.1% Tween-20, 100 uM MnCl2, 30 C; EMSA: 60-200 nM SloR, 16 uL, 12% native gel, buffer as cited; footprinting: 8.4 mM NaH2PO4, 11.6 mM Na2HPO4, 50 mM NaCl, 5 mM MgCl2, 10 ug/mL BSA, 200 ug/mL salmon sperm DNA, 7.5 uM MnCl2, 30 C; details: protein: recombinant; tags: native (untagged) SloR purified for EMSA and footprinting; chain copies: 2; label: 5' 32P; blunt
T3 sequence: T1 sequence

SloR [5] = molecular target: T3, SloR; assay: EMSA; 60 nM SloR; two band shifts, intensity 1.3 and 0.03 AU; BLI: PBS pH 7.2, 0.1% Tween-20, 100 uM MnCl2, 30 C; EMSA: 60-200 nM SloR, 16 uL, 12% native gel, buffer as cited; footprinting: 8.4 mM NaH2PO4, 11.6 mM Na2HPO4, 50 mM NaCl, 5 mM MgCl2, 10 ug/mL BSA, 200 ug/mL salmon sperm DNA, 7.5 uM MnCl2, 30 C; details: protein: recombinant; tags: native (untagged) SloR purified for EMSA and footprinting; chain copies: 2; label: 5' 32P; blunt
SloR [6] = molecular target: T3, SloR; assay: EMSA; 60 nM SloR; BLI: PBS pH 7.2, 0.1% Tween-20, 100 uM MnCl2, 30 C; EMSA: 60-200 nM SloR, 16 uL, 12% native gel, buffer as cited; footprinting: 8.4 mM NaH2PO4, 11.6 mM Na2HPO4, 50 mM NaCl, 5 mM MgCl2, 10 ug/mL BSA, 200 ug/mL salmon sperm DNA, 7.5 uM MnCl2, 30 C; details: protein: recombinant, tags: native (untagged) SloR purified for EMSA and footprinting, chain copies: 2, blunt
SloR (BLI preparation) [7] = molecular target: T2, SloR (BLI preparation); assay: BLI; 100 uM MnCl2; BLI: PBS pH 7.2, 0.1% Tween-20, 100 uM MnCl2, 30 C; EMSA: 60-200 nM SloR, 16 uL, 12% native gel, buffer as cited; footprinting: 8.4 mM NaH2PO4, 11.6 mM Na2HPO4, 50 mM NaCl, 5 mM MgCl2, 10 ug/mL BSA, 200 ug/mL salmon sperm DNA, 7.5 uM MnCl2, 30 C; details: protein: recombinant; tags: immobilized on NTA biosensor; chain copies: 2; blunt
SloR (BLI preparation) [8] = molecular target: T2, SloR (BLI preparation); assay: BLI; 100 uM MnCl2; Kd only in figure; BLI: PBS pH 7.2, 0.1% Tween-20, 100 uM MnCl2, 30 C; EMSA: 60-200 nM SloR, 16 uL, 12% native gel, buffer as cited; footprinting: 8.4 mM NaH2PO4, 11.6 mM Na2HPO4, 50 mM NaCl, 5 mM MgCl2, 10 ug/mL BSA, 200 ug/mL salmon sperm DNA, 7.5 uM MnCl2, 30 C; details: protein: recombinant; tags: immobilized on NTA biosensor; chain copies: 2; label: 5' 32P in EMSA; blunt

For “GCATACTTAACATATGCTGTTTTTTATGCTATAATGCAATTAACCCAATTATATTAGAAAAGAGATTTTCAAAATGAAAACTCATCCAAAAAAGCAATCACTCAGCGAGGT (double strand) [mntH 111-bp probe (-75 to +36 of coding)]”, the binding [1] was “no binding”.

For “GATTGTTTAGACATCTCTGATTAATTTTCCATAATCTCTATTGTGTTTTATACTGTCAGTAATTCTTACAAACTCTTTATATTCAGTAATAATAGGTACACCTTTTTTAATTTTTAAGCATACTTAACATATGCTGTTTTTTATGCTATAATGCAATTAACCCAATTATATTAGAAAAGAGATTTTCAAAATGAAAACTCATCCAAAAAAGCAATCACTCAGCGAGGTCAATCAGAGCGTTCGTGTTCCTAAAAATGCCTCTTTTTTAACAACTTTAAGAGCTTTTTTAGG (double strand) [mntH 291-bp footprint amplicon]”, the binding [2] was “binds”.

B1: mntH.22.SRE2.WT (dsDNA)
DNA 1: AATAATAGGTACACCTTTTTTA
DNA 2: TAAAAAAGGTGTACCTATTATT
B1: no binding (SloR (BLI preparation) [3]).

B2: mntH.22.SRE1.10IR (SRE1 spacer with -10 SRE IRs) (dsDNA)
DNA 1: GCAATTAAGCATACTATATTAG
DNA 2: CTAATATAGTATGCTTAATTGC
B2: no binding (SloR [4]).

B3: mntH.22.SRE1.w10.spcr (spacer variant) (dsDNA)
DNA 1: ATTTTTAACCCAATTTAACATA
DNA 2: TATGTTAAATTGGGTTAAAAAT
B3: no binding (SloR [4]).

B4: mntH.100.WT (dsDNA)
DNA 1: TACTGTCAGTAATTCTTACAAACTCTTTATATTCAGTAATAATAGGTACACCTTTTTTAATTTTTAAGCATACTTAACATATGCTGTTTTTTATGCTATA
DNA 2: TATAGCATAAAAAACAGCATATGTTAAGTATGCTTAAAAATTAAAAAAGGTGTACCTATTATTACTGAATATAAAGAGTTTGTAAGAATTACTGACAGTA
B4: binds (SloR [5]).

B5: mntH.100.CC.CT (SRE1+SRE2 mutant) (dsDNA)
DNA 1: B4 DNA 1 with A44C, G45T, A66C, A67C
DNA 2: B4 DNA 2 with T34G, T35G, C56A, T57G
B5: no binding (SloR [6]; label: 5' 32P).

B6: mntH.22.SRE1.CC (left IR mutant) (dsDNA)
DNA 1: ATTTTTCCGCATACTTAACATA
DNA 2: TATGTTAAGTATGCGGAAAAAT
B6: no binding (SloR [4]).

B7: sloA.72.WT (dsDNA)
DNA 1: AGCCTTAATTAATGTAGATTATATTTTTAATTGAACTGAATTAAAAATATAATCCAATATAATGAATATTTT
DNA 2: AAAATATTCATTATATTGGATTATATTTTTAATTCAGTTCAATTAAAAATATAATCTACATTAATTAAGGCT
In the case of B7, the Kd (SloR (BLI preparation) [7]) is reported as roughly 31 nM.

B8: mntH 100-bp deletion amplicon (dsDNA)
DNA 1: AGGTACACCTTTTTTAATTTTTAAGCATACTTAACATATGCTGTTTTTTATGCTATAATGCAATTAACCCAATTATATTAGAAAAGAGATTTTCAAAATG
DNA 2: CATTTTGAAAATCTCTTTTCTAATATAATTGGGTTAATTGCATTATAGCATAAAAAACAGCATATGTTAAGTATGCTTAAAAATTAAAAAAGGTGTACCT
B8: binds (SloR [4]).

B9: mntH.22.SRE1.WT (dsDNA)
DNA 1: ATTTTTAAGCATACTTAACATA
DNA 2: TATGTTAAGTATGCTTAAAAAT
B9: binds (SloR [6]; label: 5' 32P in EMSA); binds (SloR (BLI preparation) [8]).

B10: mntH.90.WT (dsDNA)
DNA 1: GTAATTCTTACAAACTCTTTATATTCAGTAATAATAGGTACACCTTTTTTAATTTTTAAGCATACTTAACATATGCTGTTTTTTATGCTA
DNA 2: TAGCATAAAAAACAGCATATGTTAAGTATGCTTAAAAATTAAAAAAGGTGTACCTATTATTACTGAATATAAAGAGTTTGTAAGAATTAC
Work on B10 yielded a Kd (SloR (BLI preparation) [7]) of roughly 33 nM.

B11: mntH 159-bp promoter probe (dsDNA)
DNA 1: TCTCTATTGTGTTTTATACTGTCAGTAATTCTTACAAACTCTTTATATTCAGTAATAATAGGTACACCTTTTTTAATTTTTAAGCATACTTAACATATGCTGTTTTTTATGCTATAATGCAATTAACCCAATTATATTAGAAAAGAGATTTTCAAAATG
DNA 2: CATTTTGAAAATCTCTTTTCTAATATAATTGGGTTAATTGCATTATAGCATAAAAAACAGCATATGTTAAGTATGCTTAAAAATTAAAAAAGGTGTACCTATTATTACTGAATATAAAGAGTTTGTAAGAATTACTGACAGTATAAAACACAATAGAGA
B11: binds (SloR [4]).
